The values below come from PMC4610412.

One assay concerns the target trans-locked inhibitor. The assay can be described thus: NMR titration. As to conditions: phospho-S3, trans-locked alkene isostere.
The next assay concerns the target FFpSPR. Description: NMR titration. To be noted: phospho-S3 of peptide.
For assay [1], the target named is pCdc25C (Homo sapiens). Description: NMR titration. As to conditions: phospho-T5 of peptide (pT48).
Assay [2] addresses pCdc25C (Homo sapiens). The assay can be described thus: ITC. To be noted: phospho-T5 of peptide (pT48).

What is called Kd is the constant that tells how readily two partners part at equilibrium. A lower Kd goes with a tighter complex. For the molecule ADEEKLPPGWEKRMSRSSGRVYYFNHITNASQWERPSGNSS [Pin1 (WW domain site, full-length Pin1) WW, Q13526], the dissociation constant (Kd) in the assay with trans-locked inhibitor was 53 µM; with FFpSPR, 43 µM; with pCdc25C (Homo sapiens) [1], 6 µM.

Molecule ADEEKLPPGWEKRMSRSSGRVYYFNHITNASQWERPSGNSS [Pin1 WW domain (isolated) WW, Q13526] yielded a Kd with pCdc25C (Homo sapiens) [2] of 13 µM.
